From patent publication US5663067

Key:
[1] = tested on: T1, SapI M1 methylase (Saccharopolyspora sp.); assay: cell_activity; conditions: M1 and M2 co-expressed in E. coli from pACYC184-SapIM1-M2; SapI site protection
T1 sequence: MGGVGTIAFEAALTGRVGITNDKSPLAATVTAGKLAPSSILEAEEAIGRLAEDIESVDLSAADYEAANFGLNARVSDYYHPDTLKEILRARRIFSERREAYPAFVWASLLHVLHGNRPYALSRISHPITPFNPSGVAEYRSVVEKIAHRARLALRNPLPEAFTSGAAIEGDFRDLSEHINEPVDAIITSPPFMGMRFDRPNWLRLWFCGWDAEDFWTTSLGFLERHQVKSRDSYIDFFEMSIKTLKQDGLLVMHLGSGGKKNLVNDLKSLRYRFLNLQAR

[2] = tested on: T2, SapI M2 methylase (Saccharopolyspora sp.); assay: cell_activity; conditions: M1 and M2 co-expressed in E. coli from pACYC184-SapIM1-M2; SapI site protection
T2 sequence: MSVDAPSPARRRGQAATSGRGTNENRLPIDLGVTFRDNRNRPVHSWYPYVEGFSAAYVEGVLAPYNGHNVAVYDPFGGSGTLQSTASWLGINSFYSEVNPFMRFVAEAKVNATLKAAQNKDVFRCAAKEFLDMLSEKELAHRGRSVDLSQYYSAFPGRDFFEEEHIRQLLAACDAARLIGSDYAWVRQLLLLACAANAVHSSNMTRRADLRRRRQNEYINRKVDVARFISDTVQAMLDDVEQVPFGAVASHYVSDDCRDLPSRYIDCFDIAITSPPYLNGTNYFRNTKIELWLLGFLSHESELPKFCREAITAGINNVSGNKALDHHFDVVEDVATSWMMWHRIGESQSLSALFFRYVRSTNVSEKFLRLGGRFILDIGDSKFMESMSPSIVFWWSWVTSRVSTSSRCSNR

[3] = tested on: T3, SapI restriction endonuclease (recombinant) (Saccharopolyspora sp.); assay: cleavage_in_vitro; conditions: supernatant of lysate assayed on lambda DNA; purified enzyme also assayed on lambda DNA
T3 sequence: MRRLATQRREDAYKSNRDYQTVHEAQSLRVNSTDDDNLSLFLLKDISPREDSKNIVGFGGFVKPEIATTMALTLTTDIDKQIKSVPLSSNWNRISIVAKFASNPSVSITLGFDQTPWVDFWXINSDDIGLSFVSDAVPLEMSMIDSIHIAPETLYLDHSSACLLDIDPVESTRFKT

Substance	activity (% of DNA resistant to SapI) [1]	activity (% of DNA resistant to SapI) [2]	activity (units per g wet cells) [3]
pUC19 plasmid DNA (one SapI site)	70	70	–
lambda DNA	–	–	20000
